This passage reports Kd results from article PMC10197177, “Development of high affinity broadly reactive aptamers for spike protein of multiple SARS-CoV-2 variants†”.

The target in the data set is Spike protein, wild-type (Wuhan) (SARS-CoV-2 (wild-type, original Wuhan …, UniProt P0DTC2 14-1213)). Put plainly: ELONA; Tris buffer; […], pH 7.4, room temperature, spike immobilized; […], pH 7.4 ([…]. The note with it: protein: recombinant; chain copies: 3; label: 3' biotin.

B1: Oligo14 (ssDNA)
DNA: CCACATCTACGAGCTCGAACGCCCGGAGGAGACGGGGGCAGGGCGTGTTCACTGCAGACTTGA
As to B1, the Kd (usually the free concentration of one partner at which half of the binding sites on the other are occupied at equilibrium, for simple one-to-one binding) came to 5.29 ± 0.95 nM.

For the molecule ACGAGCTCGAACGCCCGGAGGAGACGGGGGCAGGGCGTGTTCACTGC (ssDNA) [Oligo30], the equilibrium dissociation constant (Kd) was 245 ± 8 nM.

B2: K1 (truncated working aptamer) (ssDNA)
DNA: AATGGATCCACATCTACGAGCTCGAACGCCCGGAGGAGACGGGGGCAGGGCGTGTTCACTGCAGACTTGACGAAGCT
Consider B2, for which the Kd worked out at 0.066 ± 0.004 nM.

B3: M40 (truncated working aptamer) (ssDNA)
DNA: ATCTACGAATTCTCCGCCAAGATAGAGGGTGGGCCGCGGAGAATTCACTGC
In the case of B3, the Kd was 0.155 ± 0.026 nM.
